Among the data in patent US20020039999A1 are % inhibition values, retold here.

For the test, the target named is opioid receptors of rat brain homogenate ([3H]-Naloxone binding sites). Description: [3H]-Naloxone (1.0 nM) displacement, rat brain homogenate, filtration.

As to Dynorphin A 1-13-NH2 (peptide), the % inhibition (usually the drop in the measured response relative to a control, in per cent) at 0.1 nM turned out to be 2.76%; the % inhibition at 10 nM is 9.89%; the % inhibition at 1000 nM came to 91.8%.
For Dynorphin A 2-13-NH2 (peptide), in that order: 1.66%, -0.19% and 44.1%.
For Dynorphin A 2-17-NH2 (peptide), in that order: -3.21%, 4.87% and 12.7%.
Turning to “Human serum albumin (HSA) (from UniProt P02768 25-609)”, the % inhibition at 0.1 nM is -0.6%.
